# How the values were obtained:
# [1] = biological target: cross-linked and fluorescent HIV-1 CA tubes co-assembled from CA A14C/E45C and labelled CA K158C (HIV-1); assay: TIRF microscopy biosensor
# [2] = biological target: cross-linked and fluorescent HIV-1 CA tubes co-assembled from CA A14C/E45C and labelled CA K158C (HIV-1); assay: TIRF microscopy biosensor, equilibrium binding
Substance,molar binding ratio (370 nM analyte) (molecules per CA) [1],Kd [2],stoichiometry N [2]
full length CPSF6 fused at its N-terminus to GFP (natural protein),0.2,,
cyclophilin A labelled at Cys51 with Alexa Fluor 647 (from UniProt P62937 1-165) (natural protein),,8 µM,0.5 CypA per CA

# Reference: article doi:10.1101/619841
